The supplement of paper PMC9170038

Tested on: MS2 coat protein
Assay: apparent KD of MS2 coat protein; designed switch direction (-1 OFF switch, 1 ON switch): -1; higher = weaker reporter binding
In short: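 The apparent KD reported per design is the median over clusters of curve fits to normalised cluster fluorescence. The RNA switches were transcribed on Illumina chips by stalled E. coli RNA polymerase. SNAP-549-labelled MS2 coat protein was titrated from 0.7 or 1.5 nM, doubling up to 3 µM, in Tris-HCl pH 7.5 buffer containing KCl, MgCl2, BSA, DTT, tRNA and Tween-20, with no input, 200 uM small-molecule ligand, or an oligonucleotide input.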

[1] = Eterna round: R95, input ligand: microRNA oligo, concentration not stated
[2] = input ligand: microRNA oligo, concentration not stated
[3] = Eterna round: R95, input ligand: FMN 200 uM
[4] = Eterna round: R95, input ligand: none

| Sequence | apparent KD of MS2 coat protein (input ligand: FMN 200 uM) | apparent KD of MS2 coat protein (input ligand: none) | apparent KD of MS2 coat protein [1] | further results |
| --- | --- | --- | --- | --- |
| GUGAUCUAUCAUGUAAUCAACAUGAGGAUCACCCAUGUAGACAAGUUUUUUGCUCGUCUGAUAAUAAGAUAGAUCAC [Antenna 16 - Jieux - Sensor, turn-off variant 1] (Eterna round: R97, puzzle: Sensor, turn-off variant 1) | 13.8 nM | 12.3 nM |  |  |
| GUGCAAUGAGGAUAUACGUAGGUGAACAUCUGUGUGCUCCUACAUGAGGAUCACCCAUGUAGAAGGCAUGUCAC [LRO-Excl2-17] (puzzle: Exclusion 2) |  |  | 13.1 nM |  |
| GUGCCGCGAGGAUAUACAGACGGGUCCAAAACGUGUCUCGGACUUGAGGAUCACCCAAGUAGAAGGCGUUUCAG [salish99_ex2_r4_620] (Eterna round: R97, puzzle: Exclusion 2) | 18.6 nM | 18.4 nM |  |  |
| GUGCUAUAGGAAGGAUAUACUUCAUUAGACUAACAUGAGGAUCACCCAUGUAACCUUAUGUAUGUGUAGAAGGUCCAUAGCUUA (Eterna round: R96, puzzle: Exclusion NG 2) | 15.5 nM | 20.1 nM |  | apparent KD of MS2 coat protein [2]: 13.3 nM |
| GUGGGUUACAUGAGGAUCACCCAUGUAGAGUGGGAAGAGAGAUAGGAUAUGAUGUGAGAAUCAUAUCAGAAGGAUCGAGACUCG [AK ExNG3-2.3] (Eterna round: R96, puzzle: Exclusion NG 3) | 512 nM | 354 nM |  | apparent KD of MS2 coat protein [2]: 158 nM |
| GUGGGUUACAUGAGGAUCACCCAUGUAUAGUGGGAAGAGAUAUAGGAUAUAAUAUAAAAAUUAUAUUAGAAGGAUAGAGACUAG [AK ExNG3-1.2] (Eterna round: R96, puzzle: Exclusion NG 3) | 491 nM | 505 nM |  | apparent KD of MS2 coat protein [2]: 285 nM |
| GUGGGUUAUGUCAGGAUAUGGCCGUUAGGGCGACGCCAGAAGGGACAUGAGGAUCACCCAUGUCUCCGGGCAUC [BmEX4 C.10] (Eterna round: R97, puzzle: Brourd's mod of Exclusion 4) | 15.1 nM | 14.8 nM |  |  |
| GUGUACAGAGGAUAUACAAUAGGAGUUACGAAAGUAACUUCACAUGAGGAUCACCCAUGUAGAAGGCUGUACAC [Dot plot directed v8] (puzzle: Exclusion 2) |  |  | 17.7 nM |  |
| GUGUACGGAGGAUAUAUAUGGGCAGCAUACGCUGCAGCUUCACAUGAGGAUCACCCAUGUAGAAGGCUGUACAC [Mat - Exclusion 2 - Mod of Hyphema - D100] (Eterna round: R96, puzzle: Exclusion 2) | 223 nM | 24.8 nM |  | apparent KD of MS2 coat protein [2]: 18.5 nM |
| GUGUACGGAGGAUAUAUAUGGGCAGCAUACGCUGCAGCUUCACAUGAGGAUCACCCAUGUAGAAGGCUGUACAC [Mat - Exclusion 2 - Mod of Hyphema - D100] (puzzle: Exclusion 2) |  |  | 22 nM |  |
| GUGUAGACAGGAUAUGCUUUGAGCGUAUGAGAGUAGGCUCGACAUGAGGAUCACCCAUGUAGAAGGGUCUACAC [LRO-Excl2-03] (puzzle: Exclusion 2) |  |  | 10.1 nM |  |
| GUGUAGAUAGGAUAUGCAAGAGUCUAGCGAAGCUAGAUUCUACAUGAGGAUCACCCAUGUAGAAGGGUCUACAC [Fiskers Ex 2 - 29] (puzzle: Exclusion 2) |  |  | 17.3 nM |  |
| GUGUAGUCAGGAUAUACAUAGGAAGAGAAGAGAAGAGAAGCACAUGAGGAUCACCCAUGUAGAAGGGACAGUGU [Excluse me!! 4 - Jieux - Exclusion 2] (Eterna round: R96, puzzle: Exclusion 2) |  |  |  | apparent KD of MS2 coat protein [2]: 40.1 nM |
| GUGUAGUCAGGAUAUACAUAGGAAGAGAAGAGAAGAGAAGCACAUGAGGAUCACCCAUGUAGAAGGGACAGUGU [Excluse me!! 4 - Jieux - Exclusion 2] (puzzle: Exclusion 2) |  |  | 61.4 nM | apparent KD of MS2 coat protein [3]: 85.7 nM; apparent KD of MS2 coat protein [4]: 61 nM |
| GUGUAGUCAGGAUAUACAUGAGGAUCACCCAUGUGAAUAAGAUAGAAUAAGAUAAAGUGUAGAAGGGACAGUGU [Excluse me!!! 4 - Jieux - Exclusion 3] (puzzle: Exclusion 3) |  |  | 34.1 nM | apparent KD of MS2 coat protein [3]: 33.8 nM; apparent KD of MS2 coat protein [4]: 35.9 nM |
| GUGUCUCGUGUAGGAUAUGCGCGAGGUCUUUGUGCAGAAGGACAUGAGGAUCACCCAUGUAUUCCGCGGCGCGGGCAUGUGUCC [-29/-27 Kcal and A 18%] (Eterna round: R96, puzzle: Exclusion NG 1) | 249 nM | 52.5 nM |  | apparent KD of MS2 coat protein [2]: 46.7 nM |
| GUGUGCUGAGGAUAUACAGAGGAAGAUAAGAUAAGAUAAUGACAUGAGGAUCACCCAUGUAGAAGGCAGAGUGU [Excluse me!! 15 - Jieux - Exclusion 2] (puzzle: Exclusion 2) |  |  | 30.5 nM |  |

| Sequence | apparent KD of MS2 coat protein (input ligand: FMN 200 uM) | apparent KD of MS2 coat protein (input ligand: none) | apparent KD of MS2 coat protein [1] | further results |
| --- | --- | --- | --- | --- |
| GUGUUACAAGUGAGGAUAUCUGCUUUGGUAGAAGCGGAGAAGGCACAUGAGGAUCACCCAUGUCAGGAGUCCAU [Eternabot (L2) Solution 20] (Eterna round: R97, puzzle: Brourd's mod of Exclusion 4) | 393 nM | 59.3 nM |  |  |
| GUGUUGCGAGGAUAUAUAAGGGUAUGUUCUUAGGAUAUGGAACAUGAGGAUCACCCAUGUAGAAGGUGCAUAAC [JR_Ex2_Sub046] (Eterna round: R97, puzzle: Exclusion 2) | 459 nM | 761 nM |  |  |
| GUUAGACAUGAGGAUCACCCAUGUGAGGAUAUGAUGUGAAUAAAUAAUUAAUUAAGUAUCAGAAGGCACAUAUG [Mat - Mod of Hyphema D32] (puzzle: Exclusion 1) |  |  | 119 nM |  |
| GUUAGUUAAGGAUAUACUGGGAGCUGCGGCGUCUCGCCGCAACAUGAGGAUCACCCAUGUAGAAGGUGACCGUU [JL ViennaUCT Enbibi mod 6] (puzzle: Exclusion 2) |  |  | 283 nM |  |
| GUUGUGUGAGGAUAUGCCUGGCCGUGAGGCCAGAUUGGGUGGCAGAAGGUACAUGAGGAUCACCCAUGUACGGG [salish99_ex4_4_005] (Eterna round: R97, puzzle: Exclusion 4) | 47.7 nM | 47.5 nM |  |  |
| GUUGUGUGAGGAUAUGCCUGGCCGUGAGGCCGGAUUGGGUGGCAGAAGGUACAUGAGGAUCACCCAUGUACGGG [salish99_ex4_4_007] (Eterna round: R97, puzzle: Exclusion 4) | 45.4 nM | 30.9 nM |  |  |
| GUUGUUACUGAGGAUAUUAUUUUAUUCGAUUGAUAAGAAGGCAGUACAUGAGGAUCACCCAUGUGGGUAGCUAG [Polaris20] (Eterna round: R97, puzzle: Exclusion 6) | 434 nM | 95.5 nM |  |  |
| GUUGUUCGGUAGGAUAUGAAACAGCAGAGAUUGUCAGAAGGGCCGACAUGAGGAUCACCCAUGUGUGCGAAAGC [Eternabot (L1) Solution 26] (Eterna round: R97, puzzle: Exclusion 6) | 35.1 nM | 50 nM |  |  |
| GUUGUUUAUGUAGGAUAUGCCUGGCGUGCCUUCGCAGAAGGACAUGAGGAUCACCCAUGUAUUGCGGUCUGCGUUCAGAUCGCU [salish99_ExNG1_r4_023] (Eterna round: R96, puzzle: Exclusion NG 1) | 49.8 nM | 52.7 nM |  | apparent KD of MS2 coat protein [2]: 38.8 nM |
| GUUUCACAUGAGGAUCACCCAUGUGAGGAUAUGUUAUUAAUGGCGAUAGUUAUUGGUGGCAGAAGGCGCGUGAU [JR_Exc1_Sub010] (Eterna round: R97, puzzle: Exclusion 1) | 115 nM | 50.2 nM |  |  |
| GUUUCGAGACGGAGAUCCGACAUGAGGAUCACCCAUGUCUCGUAAGCUUUUUGCUCGUCUUAUACUCCUCUGUUCUC [Elimod 49 - Jieux - Sensor, turn-off variant 1] (Eterna round: R97, puzzle: Sensor, turn-off variant 1) | 26 nM | 27.2 nM |  |  |
| GUUUUCAGACGGAGAUCCUACAUGAGGAUCACCCAUGUCUCUCUUGUUAAUUGCUCGUCUUUUCCUCCUCUGUUCUC [Elimod 34 - Jieux - Sensor, turn-off variant 1] (Eterna round: R97, puzzle: Sensor, turn-off variant 1) | 545 nM | 605 nM |  |  |
| UAAAAGCGAGGAUAUACAUGAGGAUCACCCAUGUGAGGCGAAAAGCCUCGGGCCAUCAGUAGAAGGUGCAAAAC [Arcecela] (puzzle: Exclusion 3) |  |  | 68.9 nM | apparent KD of MS2 coat protein [3]: 79 nM; apparent KD of MS2 coat protein [4]: 112 nM |
| UAAAAUAGUGUGAGGAUAUGCUGGUCCUUGGAUCAGCAGAAGGCACAUGAGGAUCACCCAUGUAGUUAAUAAUA [Mat - Exclusion 4 - JL Mod - D25] (puzzle: Brourd's mod of Exclusion 4) |  |  | 36.8 nM | apparent KD of MS2 coat protein [3]: 196 nM; apparent KD of MS2 coat protein [4]: 34.4 nM |
| UAAAAUUCGCGAGGAUAUGCGACCUAAUGGGAGGAUUGUCACAUGAGGAUCACCCAUGUCAGUCAGCAGAAGGCGCACCUGGUU [Anedmaon] (Eterna round: R96, puzzle: Exclusion NG 2) | 628 nM | 99.6 nM |  | apparent KD of MS2 coat protein [2]: 116 nM |
| UAAAGCUUUGAGAUCCUUAACAUGAGGAUCACCCAUGUUCGUCUUAUGAUGGUCUGAUCCCUGAGGAUCGGACCGUU [Mat - Sensor v3 - turn-off var 1 - JL Mod - D5] (puzzle: Sensor v3, turn-off variant 1) |  |  | 26.6 nM | apparent KD of MS2 coat protein [3]: 269 nM; apparent KD of MS2 coat protein [4]: 252 nM |
| UAAAUGUGAGGAUAUCAGGUGUGCUAGCAUACUGGUACAUCUGAGAAGGCACAUGAGGAUCACCCAUGUUCCUU [Mat - Exclusion 4 - Mod of JL - D52] (puzzle: Exclusion 4) |  |  | 16.7 nM |  |
